This is an account of results in PMC10508222, “Elucidation of the stereocontrol mechanisms of the chemical and biosynthetic intramolecular Diels–Alder cycloaddition for the formation of bioactive decalins” (RSC Advances, 2023).

Test in all cases: purified protein, by the assay type
What all share (settings): pH 7.5; 25.0 °C

Series [1] concerns C/C=C/C=C/C=C/C[C@H](C)CC/C=C(\C)C(O)=C1C(=O)C(CO)N(C)C1=O.
Series [2] deals with C/C=C/C=C/C=C/C[C@@H](C)CC/C=C(\C)C(O)=C1C(=O)C(CO)N(C)C1=O.
Substrate in series [3]: C/C=C/C=C/C=C/C[C@@H](C)CC/C=C(\C)C(O)=C1C(=O)C(CO)N(C)C1=O
The source holds these as a separate data set.

Take Fsa2 (Fusarium sp. FN080326): in series [1], the Km came out at 18.07 ± 4.21 µM, the catalytic constant (kcat) amounted to 84.2 ± 6.58 s⁻¹ and the kcat/Km was found to be 4.67e+06 M⁻¹ s⁻¹. Also, in series [2], the Michaelis constant (Km) was 25.07 ± 2.98 µM, the kcat is 1.01 ± 0.048 s⁻¹ and the specificity constant (kcat/Km) is 40200 M⁻¹ s⁻¹.

B1: Phm7 (Pyrenochaetopsis sp.) (protein)
chain: MSEPTSSSSLDITSNCIIETPLQPSDFLPKSANLFPKFPERISVDSWELWEFDTFDTNGSVAFGCSLYRDARGVEQGGFHAEVNALWPDGTHWGETLYFAVSEVVENSDGTTGGKWLSKDGGSITFHIASDYTAAALDFNVPGKVSGTMELRNHANVSPTSNLPASDAEAQLCPGVYYTFPMGPVATSVTATFSSVGANGESRELFISSGYGGMVRGWSARPWPTFMNDAYYVVAQVGPYMLQILRTLGSVFVQHKPFAVARLYLDGSLVSAANTVVGDELTAHADDVKGDAVRLTKVQPDEKSQGLSGKFRDGNVGYVLEFAKKDSEHGWTFQISHKRAVWSEPTSAPGPDGTGKSGWIEAISGGAKGENYEGHGFGGQLQIPVP
In the case of B1, in series [3], the Km came to 38.21 ± 8.23 µM, the kcat was found to be 1.98 s⁻¹ and the kcat/Km was 51800 M⁻¹ s⁻¹.
